The series concerns the target T1, GlnR (Streptomyces coelicolor) (UniProt Q05943).
T1 sequence: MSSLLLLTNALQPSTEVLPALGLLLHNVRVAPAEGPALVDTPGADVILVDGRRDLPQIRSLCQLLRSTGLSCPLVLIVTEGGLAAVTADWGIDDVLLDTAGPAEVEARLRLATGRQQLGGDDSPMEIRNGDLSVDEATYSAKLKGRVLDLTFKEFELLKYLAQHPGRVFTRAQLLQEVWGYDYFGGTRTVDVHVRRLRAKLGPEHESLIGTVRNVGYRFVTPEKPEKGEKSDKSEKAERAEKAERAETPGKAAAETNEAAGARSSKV
Briefly: DNase I footprinting. To be noted: 50 mM Tris-HCl pH 8.0, 100 mM KCl, 2.5 mM MgCl2, 1 mM DTT, 10% glycerol; EMSA in 20 ul with 100 ng/ul sheared salmon sperm DNA, room temperature, 20 min ….

As for “GTAAAACGACGGCCAGTCCATGCCAGGTCATTCGGAGGCCGCCGCGGCCGGCTTGCGTTCCGGGCCGGACGGCCCGGGCACGACGACGACCGGCCCCGGCCGTTCACCCACGCGTAACACGCAGGGGCTTCCACCGAAACCGCGCTGCGTCAATGTCGTGGCGCATAACCGGCCCACCCCTCACCGCCCGCCCGCCAGGCTTCGCCCCCACGGGGCCGCACCAACGACGAGGAGACGCCGATGTCTAGATTTTT (double strand) [amtB promoter m3 footprint probe]”, the binding entry is given as “binds”.
For “GTAAAACGACGGCCAGTCCATGCCAGGTCATTCGGAGGCCGCCGCGGCCGGCTTGCGTTCCGGGCCGGACGGCCCGGGCACGACGACGACCGGCCCCGGCCGTTCACCCACGCGTAACACGCACCGTGCCTTCGTCACGGCGGCGAAACAACGAGGGGCTTCCACCGAAACCGCGCTGCGTCAATGTCGTGGCGCATAACCGGCCCACCCCTCACCGCCCGCCCGCCAGGCTTCGCCCCCACGGGGCCGCACCAACGACGAGGAGACGCCGATGTCTAGATTTTT (double strand) [amtB promoter WT footprint probe]”, the binding result was “binds”.
As to “GTAAAACGACGGCCAGTCCATGCCAGGTCATTCGGAGGCCGCCGCGGCCGGCTTGCGTTCCGGGCCGGACGGCCCGGGCACGACGACGACCGGCCCCGGCCGTTCACCCACGCGTAACACGCACCGTGCCTTCGTCACGGCGGCGAAACAACGAGAAATCTCCACCGAAACCGCGCTGCGTCAATGTCGTGGCGCATAACCGGCCCACCCCTCACCGCCCGCCCGCCAGGCTTCGCCCCCACGGGGCCGCACCAACGACGAGGAGACGCCGATGTCTAGATTTTT (double strand) [amtB promoter a2m footprint probe]”, the binding entry is “binds”.
